Test results from the RNAGym collection of RNA variant scans (doi:10.1021/acssynbio.7b00057).

B1: Pistol ribozyme (parent)
chain: GGGUCGUUGUUCCAUAAUCGCGUGGAUAUGGCACGCAAGUUUCUACCGGGCACCGUAAAUGUCCGACUGGAGCCGUUCGGGCGGCUAUAAACAGACCUCAGGCCCGAAGCGUGGCGGCACCUGCCGCCGGUGGUAAAAAAGAUCGGAAGAGCACACGUCU

Variants of: B1
Assay: aptazyme ON/OFF ratio, guanine; higher = stronger switching; co-transcriptional cleavage with and without guanine

Variant | aptazyme ON/OFF ratio
GGGUCGCAAGCGAAUAAUCGCGUGGAUAUGGCACGCAAGUUUCUACCGGGCACCGUAAAUGUCCGACUGGAGCCGUUCGGGCGGCUAUAAACAGACCUCAGGCCCGAAGCGUGGCGGCACCUGCCGCCGGUGGUAAAAAAGAUCGGAAGAGCACACGUCU | 1.13
GGGUCGCAAGCGGAUAAUCGCGUGGAUAUGGCACGCAAGUUUCUACCGGGCACCGUAAAUGUCCGACUGGAGCCGUUCGGGCGGCUAUAAACAGACCUCAGGCCCGAAGCGUGGCGGCACCUGCCGCCGGUGGUAAAAAAGAUCGGAAGAGCACACGUCU | 1.21
GGGUCGCAAGCGUAUAAUCGCGUGGAUAUGGCACGCAAGUUUCUACCGGGCACCGUAAAUGUCCGACUGGAGCCGUUCGGGCGGCUAUAAACAGACCUCAGGCCCGAAGCGUGGCGGCACCUGCCGCCGGUGGUAAAAAAGAUCGGAAGAGCACACGUCU | 1.25
GGGUCGCAAGGCCAUAAUCGCGUGGAUAUGGCACGCAAGUUUCUACCGGGCACCGUAAAUGUCCGACUGGAGCCGUUCGGGCGGCUAUAAACAGACCUCAGGCCCGAAGCGUGGCGGCACCUGCCGCCGGUGGUAAAAAAGAUCGGAAGAGCACACGUCU | 1.04
GGGUCGCAAGCCCAUAAUCGCGUGGAUAUGGCACGCAAGUUUCUACCGGGCACCGUAAAUGUCCGACUGGAGCCGUUCGGGCGGCUAUAAACAGACCUCAGGCCCGAAGCGUGGCGGCACCUGCCGCCGGUGGUAAAAAAGAUCGGAAGAGCACACGUCU | 1.03
GGGUCGCAAGCUCAUAAUCGCGUGGAUAUGGCACGCAAGUUUCUACCGGGCACCGUAAAUGUCCGACUGGAGCCGUUCGGGCGGCUAUAAACAGACCUCAGGCCCGAAGCGUGGCGGCACCUGCCGCCGGUGGUAAAAAAGAUCGGAAGAGCACACGUCU | 1.07
GGGUCGCAAGCGCAUAAUCGCGUGGAUAUGGCACGCAAGUUUCUACCGGGCACCGUAAAUGUCCGACUGGAGCCGUUCGGGCGGCUAUAAACAGACCUCAGGCCCGAAGCGUGGCGGCACCUGCCGCCGGUGGUAAAAAAGAUCGGAAGAGCACACGUCU | 1.21
GGGUCGCAAGCACAUAAUCGCGUGGAUAUGGCACGCAAGUUUCUACCGGGCACCGUAAAUGUCCGACUGGAGCCGUUCGGGCGGCUAUAAACAGACCUCAGGCCCGAAGCGUGGCGGCACCUGCCGCCGGUGGUAAAAAAGAUCGGAAGAGCACACGUCU | 1.2
GGGUCGCAAGGACAUAAUCGCGUGGAUAUGGCACGCAAGUUUCUACCGGGCACCGUAAAUGUCCGACUGGAGCCGUUCGGGCGGCUAUAAACAGACCUCAGGCCCGAAGCGUGGCGGCACCUGCCGCCGGUGGUAAAAAAGAUCGGAAGAGCACACGUCU | 1.11
GGGUCGCAAGCUAAUAAUCGCGUGGAUAUGGCACGCAAGUUUCUACCGGGCACCGUAAAUGUCCGACUGGAGCCGUUCGGGCGGCUAUAAACAGACCUCAGGCCCGAAGCGUGGCGGCACCUGCCGCCGGUGGUAAAAAAGAUCGGAAGAGCACACGUCU | 1.15
GGGUCGCAAGCUUAUAAUCGCGUGGAUAUGGCACGCAAGUUUCUACCGGGCACCGUAAAUGUCCGACUGGAGCCGUUCGGGCGGCUAUAAACAGACCUCAGGCCCGAAGCGUGGCGGCACCUGCCGCCGGUGGUAAAAAAGAUCGGAAGAGCACACGUCU | 1.17
GGGUCGCAAGCUGAUAAUCGCGUGGAUAUGGCACGCAAGUUUCUACCGGGCACCGUAAAUGUCCGACUGGAGCCGUUCGGGCGGCUAUAAACAGACCUCAGGCCCGAAGCGUGGCGGCACCUGCCGCCGGUGGUAAAAAAGAUCGGAAGAGCACACGUCU | 1.14
GGGUCGCAAGCAUAUAAUCGCGUGGAUAUGGCACGCAAGUUUCUACCGGGCACCGUAAAUGUCCGACUGGAGCCGUUCGGGCGGCUAUAAACAGACCUCAGGCCCGAAGCGUGGCGGCACCUGCCGCCGGUGGUAAAAAAGAUCGGAAGAGCACACGUCU | 1.18
GGGUCGCAAGCAAAUAAUCGCGUGGAUAUGGCACGCAAGUUUCUACCGGGCACCGUAAAUGUCCGACUGGAGCCGUUCGGGCGGCUAUAAACAGACCUCAGGCCCGAAGCGUGGCGGCACCUGCCGCCGGUGGUAAAAAAGAUCGGAAGAGCACACGUCU | 1.15
GGGUCGCAAGCAGAUAAUCGCGUGGAUAUGGCACGCAAGUUUCUACCGGGCACCGUAAAUGUCCGACUGGAGCCGUUCGGGCGGCUAUAAACAGACCUCAGGCCCGAAGCGUGGCGGCACCUGCCGCCGGUGGUAAAAAAGAUCGGAAGAGCACACGUCU | 1.1
GGGUCGCAAGCCAAUAAUCGCGUGGAUAUGGCACGCAAGUUUCUACCGGGCACCGUAAAUGUCCGACUGGAGCCGUUCGGGCGGCUAUAAACAGACCUCAGGCCCGAAGCGUGGCGGCACCUGCCGCCGGUGGUAAAAAAGAUCGGAAGAGCACACGUCU | 1.05
GGGUCGCAAGCCUAUAAUCGCGUGGAUAUGGCACGCAAGUUUCUACCGGGCACCGUAAAUGUCCGACUGGAGCCGUUCGGGCGGCUAUAAACAGACCUCAGGCCCGAAGCGUGGCGGCACCUGCCGCCGGUGGUAAAAAAGAUCGGAAGAGCACACGUCU | 1
GGGUCGCAAGCCGAUAAUCGCGUGGAUAUGGCACGCAAGUUUCUACCGGGCACCGUAAAUGUCCGACUGGAGCCGUUCGGGCGGCUAUAAACAGACCUCAGGCCCGAAGCGUGGCGGCACCUGCCGCCGGUGGUAAAAAAGAUCGGAAGAGCACACGUCU | 1.05
